Substitutions are numbered along the chain they refer to. Names and notes keep the numbering of the source. Square brackets hold non-standard residues; d marks the D form. * marks the point of attachment. Biotin = O=C1N[C@H]2[C@H](CS[C@H]2CCCCC(=O)*)N1; pY = N[C@@H](Cc1ccc(OP(=O)(O)O)cc1)C(=O)O; pT = C[C@@H](OP(=O)(O)O)[C@H](N)C(=O)O; pS = N[C@@H](COP(=O)(O)O)C(=O)O
B1: D2 variant of the FHA1 domain, phage-displayed (protein III fusion) (designed binder, not shown: small tags and cut ends)
chain: MENITQPTQQSTQATQRFLIEKFSQEQIGENIVFRVISTTGQIPIRDLSADISQVLKEKRSIKKVWTFGRNPACDYHLGNISRLSNKHFQILLGEDGNLLLNDISTNGTWLNGQKVEKNSNQLLSQGDEITVGVGVESDILSLVIFINDKFKQSLEQNKVDRIRSNLKNT
notes: Selected from a mutagenic library built on the 3C-3S template; one added mutation S34F; also called position 34 F variant
B2: BRCT-pS (peptide)
peptide: Biotin-SGSAYDI[pS]QVFPFAKKK-NH2
SMILES: CC[C@H](C)[C@H](NC(=O)[C@H](CC(=O)O)NC(=O)[C@H](Cc1ccc(O)cc1)NC(=O)[C@H](C)NC(=O)[C@H](CO)NC(=O)CNC(=O)[C@H](CO)NC(=O)CCCC[C@@H]1SC[C@@H]2NC(=O)N[C@@H]21)C(=O)N[C@@H](COP(=O)(O)O)C(=O)N[C@@H](CCC(N)=O)C(=O)N[C@H](C(=O)N[C@@H](Cc1ccccc1)C(=O)N1CCC[C@H]1C(=O)N[C@@H](Cc1ccccc1)C(=O)N[C@@H](C)C(=O)N[C@@H](CCCCN)C(=O)N[C@@H](CCCCN)C(=O)N[C@@H](CCCCN)C(N)=O)C(C)C
notes: also called Biotin-BRCT-pS
B3: D2 FHA1 variant with W at position 34, phage-displayed (designed binder)
chain: B1 chain with F34W
notes: Made from D2 by Kunkel mutagenesis at position 34; also called S34W; not shown: N-terminal Flag peptide, cloning-site residues and M13 protein III (display carrier)

Key:
[1] = biological target: Rad9-pT peptide with SGS linker (SGS-SLEVp…) (yeast); assay: FTS assay, 4 µM protein, 250 µM pT peptide
[2] = biological target: Rad9-pT peptide with SGS linker (SGS-SLEVp…) (yeast); assay: FTS assay, 1 µM protein, 250 µM pT peptide
[3] = biological target: Rad9-pT peptide with SGS linker (SGS-SLEVp…) (yeast); assay: FTS assay, 4 µM protein, 50 µM pT peptide
[4] = biological target: Rad9 pT peptide used for ITC (SLEVp…) (yeast); assay: ITC
[5] = biological target: Rad9-pT peptide with SGS linker (SGS-SLEVp…) (yeast); assay: FTS assay, 1 µM protein, 50 µM pT peptide
[6] = biological target: Rad9 pT peptide used for ITC (SLEVp…) (yeast); assay: ITC, pT peptide injected into 35 µM FHA1 domain, three repeats
Plk1-pT = biological target: T1, Plk1-pT (SMILES …); assay: phage ELISA; biotinylated peptide on Neutravidin; anti-M13-HRP, A405 [a]
T1 peptide: Biotin-SGSAGPMQS[pT]PLNGAKK-NH2
Source text: (§1) Binding of phage particles was detected using anti-M13 antibody conjugated to HRP. FIG. 4(b) is a graph of the results of ELISA experiments of GST fusions of the WT FHA1 domain and three of its variants, 3C-3S, 4C-4S, and D2, that bound specifically to the cognate pT peptide (Rad9-pT; shown as solid histograms) immobilized on plastic microtiter plate wells via Neutravidin. Binding was detected using anti-GST antibody conjugated to HRP. The peptide sequences for Rad9-pT, Rad9-T, Rad9-pS, Rad9-pY, Plk1-pT and BRCT-pS are SGSSLEVp[…] (SEQ ID NO: 1), […] (SEQ ID NO: 2), SGSSLEVp[…] (SEQ ID NO: 3), SGSSLEVp[…] (SEQ ID NO: 4), […]p[…] (SEQ ID NO: 5) and SGSAYDIp[…] (SEQ ID NO: 6), respectively. The peptide sequence for the WT FHA1 domain from S. cerevisiae Rad53 protein kinase includes […] (SEQ ID NO:7), which includes residues 1-170 of S. cerevisiae Rad53 (SEQ ID NO:8) (Liao et al. (2000) J. Mol. Biol 304, 941-51; Durocher et al. (1999) Mol Cell 4). […] The β-strands are labeled from 1 to 11 in the WT FHA1 domain structure and the N- and C-termini are noted.

Rad9-pS = biological target: T2, Rad9-pS (SMILES …); assay: as above
T2 peptide: Biotin-SGSSLEV[pS]EADATFYAKK-NH2
Source text: as §1

Rad9-pY = biological target: T3, Rad9-pY (SMILES …); assay: as above
T3 peptide: Biotin-SGSSLEV[pY]EADATFYAKK-NH2
Source text: as §1

BRCT-pS = biological target: B2; assay: phage ELISA; biotinylated peptide on Neutravidin, A405
Procedure: FIG. 9A is a photograph of 96-well plates containing phage supernatants from 96 individual clones, which were isolated after three rounds of selection, heated (50° C.), cooled, and added to microtiter plate wells coated with the phosphopeptide ligand. Binding of phage particles in the wells was monitored with an anti-M13 antibody conjugated to HRP. FIG. 9B is a graph showing the ratio of the ELISA signals for individual phage clones generated with wells contained with the target protein compared to a negative control protein (background).
Phage particles produced from 96 clones isolated after round #3, were heated at 50° C. for 3 hr and cooled to RT. The phage supernatants were then incubated with both the target peptide (500 ng/well) immobilized on NeutrAvidin (1 μg/well) coated plate wells and an unrelated target (background). Binding phage clones were detected using anti-M13 antibody conjugated to HRP (GE Healthcare). The green, colored product of the enzymatic reaction in the microtiter plate wells was measured at 405 nm using the FLUOstar OPTIMA plate reader (BMG Labtech). […] In some cases, the signal over background ratio ranged from 3 to 20 for clones (FIG. 9B).

[7] = biological target: T4, WT FHA1 domain of S. cerevisiae Rad53, phage-displayed (protein III fusion on bacteriophage M13) (Saccharomyces cerevisiae; bacteriophage …, UniProt P22216 1-170); assay: phage ELISA; biotinylated peptide on Neutravidin; anti-M13-HRP, A405 [a]
T4 construct: not shown: minor coat protein III (pIII, gene III product) of bacteriophage M13
T4 sequence: B1 chain with F34C, S38C, S154C
Source text: as §1

[8] = biological target: T5, WT FHA1 domain, GST fusion (Saccharomyces cerevisiae, UniProt P22216 1-170); assay: ELISA with GST fusion (cell lysate); biotinylated peptide on Neutravidin; anti-GST-HRP, A405 [b]
T5 construct: Expressed in the bacterial cytoplasm; cell lysate used in the ELISA; The order GST then FHA1 follows the pGEX-2T vector; also called GST fusion of the WT FHA1 domain; FHA1-GST fusion protein; not shown: Glutathione S-transferase (GST) of the pGEX-2T vector (GE Healthcare)
T5 sequence: B1 chain with F34C, S38C, S154C

[9] = biological target: T6, Rad9-pT peptide with SGS linker (SGS-SLEVpTEADATFYAKK) (yeast, SMILES …); assay: phage ELISA, normalised to Flag
T6 construct: also called cognate pT peptide; Rad-pT
T6 peptide: Biotin-SGSSLEV[pT]EADATFYAKK-NH2
Source text: Through Kunkel mutagenesis (Yaffe (2002) Nat Rev Mol Cell Bol 3, 177-86), the amino acid residue at position 34 in the β1 strand of the D2 FHA 1 domain was replaced (from the naturally-occurring V) one at a time with each of the other naturally occurring amino acids and binding to the immobilized Rad9-pT peptide was monitored by phage ELISA. Phage binding was detected using anti-M13 antibody conjugated to Horse Radish Peroxidase (HRP). […] All the variants display an N-terminal Flag peptide and the amount of phage particles used for each variant in this experiment has been normalized for this epitope.
To amplify the phage particles displaying the recombinant FHA1 variants, TG1 bacterial cells (5 mL; Stratagene) harboring the phagemid DNA were infected at mid-log (OD₆₀₀ₙₘ=0.5-0.6) with M13K07 helper phage (New England Biolabs) at a multiplicity of infection (MOI) of 20 for 1 h at 37° C. at 150 rpm. Infected cells were centrifuged, and the pellet was resuspended in fresh Luria Bertani medium (LB: 10 g Tryptone, 5 g Yeast extract, and 10 g NaCl per liter) supplemented with 50 μg/mL carbenicillin and 50 μg/ml kanamycin, and phage were amplified overnight at 30° C. at 250 rpm. All of the phage ELISA steps were performed at room temperature. […]

“WT FHA1 domain, purified with C-terminal six-histidine tag (from UniProt P22216 1-170)” gave a Tm shift in the presence of pT peptide [1] of 3.55 ° C, a Tm shift in the presence of pT peptide [2] of 3.8 ° C and a Tm shift in the presence of pT peptide [3] of 1.95 ° C. For the same molecule, the stoichiometry [4] was 1, the Tm shift in the presence of pT peptide [5] was 1.7 ° C and the Kd [6] was 1 µM.

B1: no binding (Plk1-pT); no binding (Rad9-pS); no binding (Rad9-pY). B1: no binding (BRCT-pS).

B2: no binding [7]; no binding [8].

B3: no binding [9].
